From the RNAGym collection of RNA variant scans (doi:10.7554/elife.90254)

B1: OR4K15 (parent)
chain: GUUAACGGUCAUAGGCCAUGGAAACUAGGAGCACCAUUUCGCUGCCAGUGAAGAAAUGAACAAAGAAAAUCUGGGCCAGGCAGGCAUCAAAAGAAAUAGUCUUGCGCUCAACCAGAAAGUCUGUAAUCAUUUUAAGGGUA

Variants of: B1
Assay: self-cleavage, relative activity (ratio to wild type); higher = more cleavage; in vitro, sequencing; the parent is a self-cleaving ribozyme

| Variant | self-cleavage |
| --- | --- |
| A30U U100C | 2.08 |
| A30G A69G | 1.27 |
| G31U A118G | 1.06 |
| G31A A78G | 0.27 |
| G31A A78U | 0.43 |
| A30G A110G | 0.15 |
| A33U A78G | 0.29 |
| G29U A59G | 1.31 |
| A33G G115U | 0.06 |
| A30U A56G | 0.82 |
| A33U A90G | 1.06 |
| A30G G106U | 0.04 |
| A30G G106A | 0.07 |
| A33G U122A | 0.6 |
| G31C U87C | 2.1 |
| A30C A56G | 1.27 |
| G31A C105U | 0.25 |
| G29C A91G | 1.08 |
| A33C G73A | 0.33 |
| G29A U103C | 0.77 |
| A30G A59U | 1.18 |
| C32U A60G | 1.38 |
| C32A A90G | 1.27 |
| C32A U87C | 1.38 |

| Variant | self-cleavage |
| --- | --- |
| A33G A135U | 0.95 |
| A30G U132C | 1.36 |
| G31U A60G | 1.37 |
| G29U A91G | 1.67 |
| A33G C113U | 0.02 |
| C32U C45G | 1.23 |
| A30U U49A | 1.3 |
| A30U U49C | 1.48 |
| A30U A82G | 0.52 |
| A33U A55G | 1.84 |
| A30C A111G | 0.07 |
| C32U A67G | 1.67 |
| G31A A69U | 2.21 |
| G31A U139C | 1.82 |
| G31A U139A | 1.78 |
| A30U A63G | 2.01 |
| A30C U108C | 0 |
| A30G U103A | 0.17 |
| A30G C71U | 0.62 |
| A33G A78G | 0.19 |
| A30C A51U | 2.04 |
| G31U A111U | 0.15 |
| A33C U122C | 1.09 |
| A33C U122A | 1.61 |

| Variant | self-cleavage |
| --- | --- |
| A30G U72A | 0.36 |
| A30G U72C | 0.24 |
| A30U U39A | 2.07 |
| A30U U39C | 0.9 |
| A33U A56G | 1.57 |
| A33G U100C | 2.23 |
| A33G C112G | 0.02 |
| A33U A60G | 1.38 |
| A30G U38A | 0.72 |
| A30G U38C | 1.62 |
| A30U U102C | 1.81 |
| C32U U72C | 0.2 |
| A33U A95G | 1.66 |
| A33G A111G | 0.02 |
| A30U A52G | 1.08 |
| A30U A129G | 1.24 |
| A30U A129U | 0.63 |
| A30G U130C | 0.6 |
| A30G U130G | 1.09 |
| A33U A114U | 0.08 |
| A33U A114G | 0.64 |
| G31A A117G | 1.42 |
| A30G A64G | 1.35 |
| C32G A96U | 1.87 |

| Variant | self-cleavage |
| --- | --- |
| A30U A33G | 0.69 |
| A30U A47U | 0.19 |
| A33G G53C | 0.81 |
| A30G A78G | 0.11 |
| A30G A78U | 0.41 |
| G29A A78G | 0.28 |
| A33C U102C | 2.22 |
| A30U C107A | 0.01 |
| C32U U38C | 1.02 |
| G29A A125G | 0.24 |
| A33G G58A | 0.55 |
| G29A U131C | 0.66 |
| G29A A117G | 1.77 |
| G29A U87A | 1.79 |
| G29A U87C | 1.7 |
| A30G A66G | 1.21 |
| A30G A66U | 1.22 |
| G29U A90G | 1.1 |
| A33G U120G | 0.65 |
| A33C A89G | 1.31 |
| G31A A86U | 0.91 |
| G31A A86G | 1.75 |
| A30U A60G | 0.45 |
| A33G U43C | 0.71 |

| Variant | self-cleavage |
| --- | --- |
| G31A U43A | 2.08 |
| A30U A86G | 1.87 |
| A30G A62C | 1.38 |
| A33U A54G | 0.76 |
| A30G A96U | 1.72 |
| A30G A96G | 1.25 |
| G29A A96G | 2.13 |
| A30G G123U | 0.53 |
| A30G A126U | 0.87 |
| A30G A126G | 1.23 |
| G31C U139C | 1.53 |
| A30G A67G | 0.91 |
| A30U U72C | 0.27 |
| A30U U72A | 0.27 |
| G31U A92G | 1.27 |
| C32U U70C | 0.69 |
| G29A A56G | 1.5 |
| G31A U132C | 1.72 |
| A30G G79A | 0.17 |
| A30C U120C | 0.69 |
| G31U A47G | 1.05 |
| C32U C121U | 2.22 |
| C32U U57C | 1.07 |
| A30G A95U | 1.42 |

| Variant | self-cleavage |
| --- | --- |
| A30G A95C | 1.26 |
| A30U U108A | 0.05 |
| C32U C40U | 2.05 |
| A30G G31A | 1.61 |
| A33G U70C | 0.22 |
| C32U A69G | 1.21 |
| A30G A63U | 1.17 |
| A30G A90G | 1.37 |
| C32U A110G | 0.23 |
| A33C G50U | 1.41 |
| A30C A59G | 0.35 |
| A33G U132A | 0.51 |
| A33G U132C | 0.83 |
| A30C A125G | 0.31 |
| A33G A60G | 0.98 |
| A30U C77U | 1.77 |
| A33G A96G | 0.96 |
| A30G U49G | 1.48 |
| A30G U133C | 1.8 |
| A33G A94U | 0.59 |
| G31U A52G | 1.71 |
| A33U A47G | 1.68 |
| A33U A47U | 0.84 |
| A33G A98U | 1.19 |

| Variant | self-cleavage |
| --- | --- |
| A33U A66U | 1.62 |
| A30G U100C | 1.93 |
| A30G U100A | 0.49 |
| G31A A59U | 0.76 |
| G31A A59G | 1.04 |
| A33G A90G | 0.46 |
| A30C U38C | 1.02 |
| A30U A140G | 0.96 |
| G31U A129G | 1.78 |
| A33G A67U | 1.36 |
| G29C U108A | 0.02 |
| C32U A78U | 0.38 |
| C32U A78G | 0.53 |
| A33C A126G | 1.8 |
| A33C U38C | 1.53 |
| A30G A33G | 1.17 |
| A30U C81U | 0.51 |
| G31A A92G | 1.57 |
| A30C A96G | 1.43 |
| A33C U132C | 1.46 |
| A30G A91U | 1.67 |
| A30G A91G | 0.24 |
| G29A U124A | 0.77 |
